Measured values as given in patent US20220323580A1 (Janssen / Centocor, published 2022).

Assays:
recombinant human TNFα [1] = molecular target: T1, recombinant human TNFα (human, UniProt P01375 77-233, 125I-labeled in the receptor blocking assay); experiment: competition radioligand assay: mAb in hybridoma supernatant preincubated with 5 ng/ml 125I-TNFα, then cpm bound to plate-coated p55-sf2 counted; blocked partner p55-sf2
T1 construct: It is not tied to the protein used in the assays, so it is not used here; also called huTNFα; tumor necrosis factor alpha
Protocol: Each sample was tested in duplicate. The results shown are representative of two independent experiments.
(§1) 50:1 of p55-sf2 at 0.5:g/ml in PBS was added to Optiplates to coat the wells during a one-hour incubation at 37° C. Serial dilutions of the eight TNV cell supernatants were prepared in 96-well round-bottom plates using PBS/0.1% BSA as diluent. […] The mixture was preincubated for one hour at RT. […] After 2 hrs at RT, Optiplates were washed three times with PBS-Tween. […] of Microscint-20 was added and the cpm bound determined using the TopCount […].

recombinant human TNFα [2] = molecular target: T1, recombinant human TNFα; experiment: competition: 125I-TNFα binding to plate-coated p55-sf2, hybridoma supernatant
Protocol: as §1
The concentrations of the TNV mAbs in their respective cell supernatants were first determined by standard ELISA analysis for human IgG.

recombinant human TNFα [3] = molecular target: T1, recombinant human TNFα; experiment: cell-based or functional assay

| IC50 (read off the curve) (recombinant human TNFα [1]) [ng/mL] | fold better at blocking TNF binding (vs TNV118 and TNV14) (recombinant human TNFα [2]) [fold] | neutralizing TNFα bioactivity (recombinant human TNFα [3]) | Binder |
| --- | --- | --- | --- |
| ~4 |  |  | TNV15 (antibody, human IgG1, V domains shown, Totally human IgG1 kappa mAb from the GenTNV fusion, tested as hybridoma supernatant; also called GenTNV15.28.11; C415A) VH: QVQLVESGGGVVQPGRSLRLSCAASGFTFSSYAMHWVRQAPGKGLEWVAFILYDGSNKKYADSVKGRFTISRDNSKNALYLQMNSLRAEDTAVYYCARDRGVSAGGNYYYYGMDVWGQGTTVTVSS VL: EIVLTQSPATLSLSPGERATLSCRASQSVSSYLAWYQQKPGQAPRLLIYDASNRATGIPARFSGSGSGTDFTLTISSLEPEDFAVYYCQQRSNWPPFTFGPGTKVDIK |
|  | ~4 |  | TNV86 (antibody, V domains shown, also called GenTNV86.14.34; C417A) VH: QVQLVESGGGVVQPGRSLRLSCAASGFIFSSYAMHWVRQAPGNGLEWVAFMSYDGSNKKYADSVKGRFTISRDNPKNTLYLQMNSLRAEDTAVYYCARDRGIAAGGNYYYYGMDVWGQGTTVTVSS VL: EIVLTQSPATLSLSPGERATLSCRASQSVYSYLAWYQQKPGQAPRLLIYDASNRATGIPARFSGSGSGTDFTLTISSLEPEDFAVYYCQQRSNWPPFTFGPGTKVDIK |
| ~4 |  | 4 fold (vs TNV14) | TNV196 (antibody, human IgG1, V domains shown, Totally human IgG1 kappa mAb from the GenTNV fusion, tested as hybridoma supernatant; also called GenTNV196.9.1; C421A) VH: QVQLVESGGGVVQPGRSLRLSCAASGFTFSSYAMHWVRQAPGKGLEWVAFISYDGSNKKSADSVKGRFTVSRDNSKNTLFLQMNSLRAEDTAVFYCARDRGIGAGGNYYYYGMDVWGQGTTVTVSS VL: EIVLTQSPATLSLSPGERATLSCRASQSVYSYLAWYQQKPGQAPRLLIYDASNRATGIPARFSGSGSGTDFTLTISSLEPEDFAVYYCQQRSNWPPFTFGPGTKVDIK |
| ~4 | ~4 | 4 fold (vs TNV14) | TNV148 (antibody, V domains shown, also called GenTNV148.26.12; C420A) VH: QVQLVESGGGVVQPGRSLRLSCAASGFIFSSYAMHWVRQAPGNGLEWVAFMSYDGSNKKYADSVKGRFTISRDNPKNTLYLQMNSLRAEDTAVYYCARDRGIAAGGNYYYYGMDVWGQGTTVTVSS VL: EIVLTQSPATLSLSPGERATLSCRASQSVYSYLAWYQQKPGQAPRLLIYDASNRATGIPARFSGSGSGTDFTLTISSLEPEDFAVYYCQQRSNWPPFTFGPGTKVDIK |
